# Data published in the nanobody polyreactivity screen of Harvey et al. (2022).
# Test: yeast display, Sf9 membrane polyspecificity reagent, FACS + sequencing; frameworks hold sequencing errors
# In short: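 After 36–48 hours of galactose induction, yeast (Saccharomyces cerevisiae BJ5465) displaying a synthetic nanobody library were stained at 4 °C for 1 hour with 10% biotinylated, detergent-solubilized Sf9 membrane reagent. Streptavidin microbeads enriched the stained cells before FACS sorting into low and high (top ~1%) gates on anti-HA and streptavidin fluorescence. Each clone's polyreactivity label reflects its gate of origin.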
row,Sequence,polyreactivity (PSR sort gate)
1,QVQLVESGGGLVQAGGSLRLSCAASGSTFPGNARGWSRQAPGKLRELVAAIRWSGGRTYYADSVKGRFTISRDNAKNTVYLQMNSLNPEDTAVSYCNAVSDRPIPWYYYWGQGTQVTASS,low polyreactivity
2,QVQLVESGGGLVQAGGSLRLSCAASGSTFPGYAMGWYRQAPGKERELVASIYTGGSTYYADSVKGRFTISRDNAKNTVYLQMNSLKPEDTAVYYCAADSYNVSSLLYYWGQGTQVTVSS,low polyreactivity
3,QVQLVESGGGLVQAGGSLRLSCAASGSTFPHYVMGWYRQAPGKERELVAGISWSGGSTYYADSVKGRFTISRDNAKNTVYLQMNSLKPEDTAVYYCAKVLTWRGYRYNYWGQGTQVTVSS,low polyreactivity
4,QVQLVESGGGLVQAGGSLRLSCAASGSTFPLNAMGWYRQAPGKERELVASINFGGGTTYYADSVKGRFTISRDNAKNTVYLQMNSLKPEDTAVYYCAADVYRGTYRRDYWGQGTQVTVSS,high polyreactivity
5,QVQLVESGGGLVQAGGSLRLSCAASGSTFPLYAMGLYRQAPGKERELVAAITGGGGRTYYADSVKGRFTISRDIAKNTVYLQMNSLKPEYTAVYYCNAVVYLTNYWYDYWAQGTQVTVSS,low polyreactivity
6,QVQLVESGGGLVQAGGSLRLSCAASGSTFPLYAMGWYRQAPGKERELVAAITWSGANTYYADSVKGRFTISRDNAKNTVYLQMNSLKPEDTAVYYCAALYYWDQPQLEFSYWGQGTQVTVSS,low polyreactivity
7,QVQLVESGGGLVQAGGSLRLSCAASGSTFPLYAMGWYRQAPGKERELVATISWGDGSTYYADSVKGRFTISRDTAKNTVYLQMNSLNPEETAVYYCAEDEYPDATTDATDKYYYWGQGTQVTVST,low polyreactivity
8,QVQLVESGGGLVQAGGSLRLSCAASGSTFPPNAMGWYRQAPGKEGELVADSSDSSTYYADSVKGRFTISRDNAKNTVYLQMNSLKPEDTAVYYCAAADAGLSSKSYGQQYDYWGQGTQVTVSS,low polyreactivity
9,QVQLVESGGGLVQAGGSLRLSCAASGSTFPPNAMGWYRQAPGKERELVAAISERGGSTYYADSVKGRFTISRDNAKNTVYLLMNSLKPEDTAVYYCAVDYYYLMYWGQGTQVTVSS,low polyreactivity
10,QVQLVESGGGLVQAGGSLRLSCAASGSTFPPNAMGWYRQARGKARELVAVISYSDGSTYYADSVNGRFTISRDNAKNTVYLQMNSLKPEDTAVYYCAAYSGYAGVSMYYWGQGTQVTVSS,low polyreactivity
11,QVQLVESGGGLVQAGGSLRLSCAASGSTFPPYAMGWYRPAPGKGRELVAAISYRDTGTYYADSVKGRFTISRDNAKNTVYLQMNSLKPEDTAVYYCAADYLIVYYFLYYYWGQGTPVTVSS,low polyreactivity
12,QVQLVESGGGLVQAGGSLRLSCAASGSTFPPYAMGWYRQAPGKERDLVADITRRGASTYYADSVKGRFTISRDNAKNTVYLQMNSLKPEDTAVYYCAARYYYQYYSGFDYWGQGTQVTVSS,high polyreactivity
13,QVQLVESGGGLVQAGGSLRLSCAASGSTFPRNAMGWYRQAPGKERELVAAISYSGGRTYYADSVKGRFTISRDNAKNTVYLQMNSLKPEDTAVYYCAAQPYSLVRGKSYGYWGQGTQVTVSS,high polyreactivity
14,QVQLVESGGGLVQAGGSLRLSCAASGSTFPRNAMGWYRQAPGKERELVATITSSAGGTYYADSVKGRFTISRDNAKNTVYLQMNSLKPEDTAVYYCNADKNGFWYTYFGRERDYWGQGTQVTVSS,low polyreactivity
15,QVQLVESGGGLVQAGGSLRLSCAASGSTFPSNAMGRYRQAPGKERELVAVISTSGVRTYYADSVKGRFTISRDNAKNTVYLQMNSLKPEDTAVYYCAARTRSYGGNGYRYPFDYWGQGTQVTVSS,high polyreactivity
16,QVQLVESGGGLVQAGGSLRLSCAASGSTFPSYAMGCYRQAPAKERELVAAINSGGGTNYADSVKGRFTISRDNAKNTVYLQMNSLKPEDTAVYYCAKSRYDYTKTEGGYWGQGTQVTVSS,low polyreactivity
17,QVQLVESGGGLVQAGGSLRLSCAASGSTFPSYAMGWYRPAPGKERELVAAINSGGGTNYADSVKGRFTISRDNAKNTVYLQMNSLKPEDTAVYYCAKSRYDYTKTEGGYWGQGTQVTVSS,low polyreactivity
18,QVQLVESGGGLVQAGGSLRLSCAASGSTFPTKAMGWYRQAPGKERELVATITTRRSTYYADSVKGRFTISRDNAKNTVYLQMNSLKPEDTAVYYCNAEYVYLIFSVYLYDYDYWGQGTQVTVSS,low polyreactivity
19,QVQLVESGGGLVQAGGSLRLSCAASGSTFPTNAMGWYRPAPGKERELVATFTTGGSTYYADSVKGRFTISRDNAKNTVYLQMNSLKPVDTAVYYCNAEYVYLIFSVYLYDYDYWGQVTQVTVSS,low polyreactivity
20,QVQLVESGGGLVQAGGSLRLSCAASGSTFPTNAMGWYRQAPGKEREFVADITIRGGGTAYADSVKGRFTISRDNAKNTVYLQMTSLKPEDTAVYYCARSKSTELKRLLYDSWGQGTQVTVST,low polyreactivity
21,QVQLVESGGGLVQAGGSLRLSCAASGSTFPTNAMGWYRQAPGKERELDAGITEGGSSTYYADSVKGRFTISRDYAKNTVYLQMNSLKPEDTAVYYCAADVLWYGPFWVRQDDYWGQGTQLTVSS,high polyreactivity
22,QVQLVESGGGLVQAGGSLRLSCAASGSTFPTNAMGWYRQAPGKERELVAAISQRGDSTSYADSVKGRFTISRDNAKNTVYLQMNSLKPEDTAVYFCAVDAYSYYDSTWFWYDYWGQGTQVTVSS,high polyreactivity

row,Sequence,polyreactivity (PSR sort gate)
1,QVQLVESGGGLVQAGGSLRLSCAASGSTFPTYAMGWYRQAPGKERELVAAITRGGSTYYADSVKGRFTISRDNAKNTVYLQMHSRKPEDTSVYYCAVYEFLGQIGKRDYWGQGTQVTVSS,low polyreactivity
2,QVQLVESGGGLVQAGGSLRLSCAASGSTFPTYVMGWYRQAPGKERELVASINSDTGTYYADSVKGRFTISRDNAQNTVYLQMNSLKPEDTAVYYCNARQAYYFYPFEYDYWGQGTQVTVSS,low polyreactivity
3,QVQLVESGGGLVQAGGSLRLSCAASGSTFPVYAMGWYRQAPGKERELVASISSGADTNYADSVKGRFTISRDNAKNTVYLQMNSLKPEDTAVYYCAATVPLRTIRPRSYGYWGQGTQVTVSS,low polyreactivity
4,QVQLVESGGGLVQAGGSLRLSCAASGSTFPWNAMGWYRQAPGKERELVAAINYGNGSTYYADSVKGRFTISRDNAKNTVYLQMNSLKPEDTAVYYCNADYTGTRTDSVTPEYEYWGQGTQVTVSS,low polyreactivity
5,QVQLVESGGGLVQAGGSLRLSCAASGSTFPYNAMGWYRQAPGKERELVAAITGRGGSTYYADSVKGRFTISRDNAKNTVYLQMNSLKPEDTAVYYCGADFWYSYYYWGQGTQVTVSS,high polyreactivity
6,QVQLVESGGGLVQAGGSLRLSCAASGSTFPYYAMGWYRQAPGKERELVAAISRGDSTNYADSVKGRFTISRDNAKNTFYLQMNSLKTEDTAVYYCAARLQYRRTSVKYYYWGQGTQVTVSS,high polyreactivity
7,QVQLVESGGGLVQAGGSLRLSCAASGSTFPYYAMGWYRQAPGKERELVAAISWRGTRTYYADSVKGRFTISRDNAKNTVYLQMNSLKPEDTAVYYCNAYHTPEYQEGGYYWGQGTQVTVSS,high polyreactivity
8,QVQLVESGGGLVQAGGSLRLSCAASGSTFPYYAMGWYRQAPGKERELVASIRKRGGGTYYADSVKGRFTISRDNAKNTVYLQMNSLKPEDTAVYYCAVRVYQFRYTGYDYWGQGTQVTVSS,high polyreactivity
9,QVQLVESGGGLVQAGGSLRLSCAASGSTFPYYDMGWYRQAPGKERELVAAISWSGDSTYYADSVKGRFTISRDNAKNTVYLQMNRLKPEDTAVYYCAAYSDYWSYLSTDDYWGQGTQVTVSS,low polyreactivity
10,QVQLVESGGGLVQAGGSLRLSCAASGSTFPYYVMGRYRQAPGKERELVAAITRSTGTTYYADSVKGRFTISRDNAKNTVYLQMNSLKPEDTAVYYCAARSSSSPRWYGGDYWGQGTQVTVSS,low polyreactivity
11,QVQLVESGGGLVQAGGSLRLSCAASGSTFQAKAMGWYRQAPGKERELVAAISWRGSSTYYADSVKGRFTISRDNAKNTVYLQMNSLKPEDPAVYYCAAASSGSYYRYEYWGQGTQVTVSS,high polyreactivity
12,QVQLVESGGGLVQAGGSLRLSCAASGSTFQANAMGWYRQAPGKERELVAAISSRGGITYYADSVKGRFTISRDNAKNTVYLQMNSLKPEYTAVYYSNALPRCTYRQGLGVRLYYWGQGTQVTVSS,high polyreactivity
13,QVQLVESGGGLVQAGGSLRLSCAASGSTFQFYAMGWYRQAPGKEREFVAAITTRSGSTYYADSVKGRFTISRDTAKNTVYLQMNSQKPEDTAVYYCAAYIYGHSSDSVRYEYWGQGTQVTVSS,low polyreactivity
14,QVQLVESGGGLVQAGGSLRLSCAASGSTFQGKAMGWYRQAPGKERELVATINNDGSTYYADSVKGRFTISRDNAKNTVYLQMNSLKPEDTAVYYCAADVHRVVLEYDYWGQGTQVTVSS,low polyreactivity
15,QVQLVESGGGLVQAGGSLRLSCAASGSTFQGNAMGWYRQAPGKERELVAAISTSGGRTRYADSVKGRFTISRDKAKNTVYLQMNSLKPEDTAVYHCATTYWYGKRPKMYYWGQGTQVTVSS,high polyreactivity
16,QVQLVESGGGLVQAGGSLRLSCAASGSTFQHYAMGWYRQAPGKERELVAAITNTGGSTYYADSVKGRFTISRDNAKNTVDLQMNSLKPEDTAVYYCATVGRRYGYPGDYWGQGTQVTVSS,low polyreactivity
17,QVQLVESGGGLVQAGGSLRLSCAASGSTFQINAMGWYRQAPGKEREFVAAITVSSGSTYYADSVKGRFTISRDNAKNTVYLQMNSLKPEDTAVYYCAADYWGQGTQVTVSS,low polyreactivity
18,QVQLVESGGGLVQAGGSLRLSCAASGSTFQLNAMGWYRQAPGKERELVAAISVRGGSTYYADSVKGRFTISRDTAKNTVYLQMHSLKPEETAVYYCATDSLYFLFAGDAVVRRPSYYWGQGTQVTVSS,high polyreactivity
19,QVQLVESGGGLVQAGGSLRLSCAASGSTFQPYAMGWYIQAPGKEREFVATISGSAGSTYYADSVKGRFKISRDNAKNTVYLQMNSLKPEDTAVYYCNADSGWFGYDYWGQGTQVTVSS,low polyreactivity
20,QVQLVESGGGLVQAGGSLRLSCAASGSTFQPYAMGWYRQAPGKEREFVATISGSAGSTYYADSVKGRFKISRDNAKNTVYLQMNSLKPEDTGVYYCNARPARKSLDYDYWGQGTQVTVSS,low polyreactivity
21,QVQLVESGGGLVQAGGSLRLSCAASGSTFQPYAMGWYRQSPGKEREFVATISGSAGSTYYADSVKGRFKISRDNAKNTVYLQMNSLKPEDTAVYYCNADSGWFGYDYWGQGTQVTVSS,low polyreactivity
